Measured values published in patent publication US20200199576.
Substitutions are numbered along the chain they refer to. In names and notes the source's numbering stands.

Legend:
[1] = molecular target: wt UbcH7 (human E2)
[2] = molecular target: T1, xUbcH7 (human), R5E, K9E
T1 chain: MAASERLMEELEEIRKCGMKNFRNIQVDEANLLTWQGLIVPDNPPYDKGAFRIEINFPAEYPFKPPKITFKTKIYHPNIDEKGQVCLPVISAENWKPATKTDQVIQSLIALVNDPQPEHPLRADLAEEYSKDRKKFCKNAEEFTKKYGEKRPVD

[3] = molecular target: p53, P04637
[4] = molecular target: phosphatase PPP3CA, Q08209
[5] = molecular target: T2, kinase MAPK3, P27361
T2 chain: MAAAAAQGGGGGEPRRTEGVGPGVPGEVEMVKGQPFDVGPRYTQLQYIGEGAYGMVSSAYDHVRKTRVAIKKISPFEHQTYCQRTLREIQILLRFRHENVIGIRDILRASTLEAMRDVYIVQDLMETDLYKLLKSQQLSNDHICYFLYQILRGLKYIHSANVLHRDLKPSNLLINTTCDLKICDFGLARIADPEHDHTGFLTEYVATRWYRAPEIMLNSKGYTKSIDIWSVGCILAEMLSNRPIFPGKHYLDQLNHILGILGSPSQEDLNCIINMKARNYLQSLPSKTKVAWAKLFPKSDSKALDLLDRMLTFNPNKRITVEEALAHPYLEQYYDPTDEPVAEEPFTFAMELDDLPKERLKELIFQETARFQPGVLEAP

[6] = molecular target: T3, CDK4, P11802
T3 chain: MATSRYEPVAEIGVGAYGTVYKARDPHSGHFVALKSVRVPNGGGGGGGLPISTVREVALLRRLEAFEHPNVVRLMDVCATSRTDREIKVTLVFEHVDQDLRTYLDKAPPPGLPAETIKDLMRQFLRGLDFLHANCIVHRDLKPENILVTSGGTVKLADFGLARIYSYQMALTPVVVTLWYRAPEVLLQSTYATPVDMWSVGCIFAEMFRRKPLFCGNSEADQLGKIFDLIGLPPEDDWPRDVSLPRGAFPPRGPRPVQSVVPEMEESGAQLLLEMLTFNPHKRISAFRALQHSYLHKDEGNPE

[7] = molecular target: protein arginine methyl transferase PRMT1, Q99873
[8] = molecular target: T4, β-catenin, P35222
T4 chain: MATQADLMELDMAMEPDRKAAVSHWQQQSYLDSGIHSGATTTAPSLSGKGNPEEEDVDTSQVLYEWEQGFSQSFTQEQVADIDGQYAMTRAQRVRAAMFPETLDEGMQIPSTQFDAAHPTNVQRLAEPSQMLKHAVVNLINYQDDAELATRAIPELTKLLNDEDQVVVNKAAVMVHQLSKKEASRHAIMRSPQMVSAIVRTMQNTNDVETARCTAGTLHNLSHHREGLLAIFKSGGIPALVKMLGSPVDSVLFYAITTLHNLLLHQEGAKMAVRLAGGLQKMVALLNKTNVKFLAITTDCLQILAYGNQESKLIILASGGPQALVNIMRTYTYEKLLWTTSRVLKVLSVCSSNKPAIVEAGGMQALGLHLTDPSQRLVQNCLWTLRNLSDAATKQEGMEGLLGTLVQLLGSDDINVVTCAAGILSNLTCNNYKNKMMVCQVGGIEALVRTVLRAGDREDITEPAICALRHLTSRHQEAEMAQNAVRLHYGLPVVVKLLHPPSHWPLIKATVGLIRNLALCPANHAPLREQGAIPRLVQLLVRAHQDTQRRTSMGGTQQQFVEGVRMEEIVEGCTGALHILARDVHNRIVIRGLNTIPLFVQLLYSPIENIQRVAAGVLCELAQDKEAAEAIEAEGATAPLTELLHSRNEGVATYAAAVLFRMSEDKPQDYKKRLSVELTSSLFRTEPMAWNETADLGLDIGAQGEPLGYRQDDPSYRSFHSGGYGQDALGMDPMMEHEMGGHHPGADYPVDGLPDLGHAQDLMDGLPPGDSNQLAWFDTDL

Sequence of p53, P04637 (P04637 whole entry, looked up): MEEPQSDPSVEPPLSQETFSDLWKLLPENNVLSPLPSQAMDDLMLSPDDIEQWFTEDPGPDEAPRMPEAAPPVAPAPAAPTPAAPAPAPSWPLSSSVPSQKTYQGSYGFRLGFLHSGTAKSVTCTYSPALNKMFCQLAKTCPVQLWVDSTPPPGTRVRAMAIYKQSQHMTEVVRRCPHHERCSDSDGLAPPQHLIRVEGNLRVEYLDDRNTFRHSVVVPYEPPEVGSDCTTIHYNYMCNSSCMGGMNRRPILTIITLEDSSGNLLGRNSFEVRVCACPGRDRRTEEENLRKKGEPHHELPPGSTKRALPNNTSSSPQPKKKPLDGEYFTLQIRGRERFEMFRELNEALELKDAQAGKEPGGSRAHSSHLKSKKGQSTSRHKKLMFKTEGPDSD
Sequence of protein arginine methyl transferase PRMT1, Q99873 (Q99873 whole entry, looked up): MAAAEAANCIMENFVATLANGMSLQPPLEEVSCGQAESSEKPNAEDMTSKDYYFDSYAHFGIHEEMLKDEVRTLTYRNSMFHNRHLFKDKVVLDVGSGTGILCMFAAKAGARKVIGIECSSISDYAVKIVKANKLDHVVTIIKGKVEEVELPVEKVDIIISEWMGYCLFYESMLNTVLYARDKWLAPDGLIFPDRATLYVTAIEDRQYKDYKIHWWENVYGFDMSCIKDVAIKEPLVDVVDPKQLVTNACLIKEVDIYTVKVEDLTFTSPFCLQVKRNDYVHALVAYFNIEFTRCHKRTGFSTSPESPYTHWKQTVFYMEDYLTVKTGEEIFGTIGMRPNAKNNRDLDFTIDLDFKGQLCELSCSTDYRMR

B1: wt HECT domain of E6AP (protein)
chain: MKRAAAKHLIERYYHQLTEGCGNEACTNEFCASCPTFLRMDNNAAAIKALELYKINAKLCDPHPSKKGASSAYLENSKGAPNNSCSEIKMNKKGARIDFKDVTYLTEEKVYEILELCREREDYSPLIRVIGRVFSSAEALVQSFRKVKQHTKEELKSLQAKDEDKDEDEKEKAACSAAAMEEDSEASSSRIGDSSQGDNNLQKLGPDDVSVDIDAIRRVYTRLLSNEKIETAFLNALVYLSPNVECDLTYHNVYSRDPNYLNLFIIVMENRNLHSPEYLEMALPLFCKAMSKLPLAAQGKLIRLWSKYNADQIRRMMETFQQLITYKVISNEFNSRNLVNDDDAIVAASKCLKMVYYANVVGGEVDTNHNEEDDEEPIPESSELTLQELLGEERRNKKGPRVDPLETELGVKTLDCRKPLIPFEEFINEPLNEVLEMDKDYTFFKVETENKFSFMTCPFILNAVTKNLGLYYDNRIRMYSERRITVLYSLVQGQQLNPYLRLKVRRDHIIDDALVRLEMIAMENPADLKKQLYVEFEGEQGVDEGGVSKEFFQLVVEEIFNPDIGMFTYDESTKLFWFNPSSFETEGQFTLIGIVLGLAIYNNCILDVHFPMVVYRKLMGKKGTFRDLGDSHPVLYQSLKDLLEYEGNVEDDMMITFQISQTDLFGNPMMYDLKENGDKIPITNENRKEFVNLYSDYILNKSVEKQFKAFRRGFHMVTNESPLKYLFRPEEIELLICGSRNLDFQALEETTEYDGGYTRDSVLIREFWEIVHSFTDEQKRLFLQFTTGTDRAPVGGLGKLKMIIAKNGPDTERLPTSHTCFNVLLLPEYSSKEKLKERLLKAITYAKGFGML
HECT auto-ubiquitination with wt UB, reducing gel [1]: HECT domains of wt E6AP, Nedd4, Smurf1 and Smurf2 can be loaded with wt UB through the wt Uba1-UbcH7 pair

B2: E6AP HECT mutant YW6 (D651R, D652E, M653W, M654H) (protein)
chain: B1 chain with D651R, D652E, M653W, M654H
HECT auto-ubiquitination with xUB, Western blot [2]: YW3, YW4 and YW6 could be efficiently auto-ubiquitinated with xUB through the xUba1-xUbcH7 pair

B3: xE6AP (fYW6), full-length E6AP with the YW6 HECT domain (protein)
chain: B1 chain with D651R, D652E, M653W, M654H
p53 ubiquitination in the presence of E6, Western blot [3]: fYW6 could efficiently ubiquitinate p53 with xUB through the xUba1-xUbcH7-fYW6 cascade and the ubiquitination was dependent on the E6 protein | full-length E6AP auto-ubiquitination with xUB, Western blot [2]: fYW4 and fYW6 can be auto-ubiquitinated by xUB through the xUba1-xUbcH7 cascade

B4: HECT domain of wt Smurf1 (protein)
chain: YERDLVQKLKVLRHELSLQQPQAGHCRIEVSREEIFEESYRQIMKMRPKDLKKRLMVKFRGEEGLDYGGVAREWLYLLCHEMLNPYYGLFQYSTDNIYMLQINPDSSINPDHLSYFHFVGRIMGLAVFHGHYINGGFTVPFYKQLLGKPIQLSDLESVDPELHKSLVWILENDITPVLDHTFCVEHNAFGRILQHELKPNGRNVPVTEENKKEYVRLYVNWRFMRGIEAQFLALQKGFNELIPQHLLKPFDQKELELIIGGLDKIDLNDWKSNTRLKHCVADSNIVRWFWQAVETFDEERRARLLQFVTGSTRVPLQGFKALQGSTGAAGPRLFTIHLIDANTDNLPKAHTCFNRIDIPPYESYEKLYEKLLTAVEETCGFAVE
HECT auto-ubiquitination with wt UB, reducing gel [1]: HECT domains of wt E6AP, Nedd4, Smurf1 and Smurf2 can be loaded with wt UB through the wt Uba1-UbcH7 pair | HECT auto-ubiquitination with xUB, reducing gel [2]: the R5E and K9E mutants in the N-terminal helix of xUbcH7 interfered with the transfer of xUB to wt HECT E3s such as E6AP, Nedd4, Smurf1, and Smurf2

B5: wt CHIP (full-length) (protein)
chain: MKGKEEKEGGARLGAGGGSPEKSPSAQELKEQGNRLFVGRKYPEAAACYGRAIMQQHEQALADCRRALELDGQSVKAHFFLGQCQLEMESYDEAIANLQRAYSLAKEQRLNFGDDIPSALRIAKKKRWNSIEERRIHQESELHSYLSRLIAAERERELEECQRNHEGDEDDSHVRAQQACIEAKHDKYMADMDELFSQVDEKRKKRDIPDYLCGKISFELMREPCITPSGITYDRKDIEEHLQRVGHFDPVTRSPLTQEQLIPNLAMKEVIDAFISENGWVEDY
in vitro substrate ubiquitination with wt UB through wt Uba1-UbcH5b-CHIP, Western blot [4]: CHIP ubiquitination of PRMT1 and PPP3CA generated mono-ubiquitinated species | in vitro substrate ubiquitination with wt UB through wt Uba1-UbcH5b-CHIP, Western blot [5]: CHIP could poly-ubiquitinate MAPK3, β-catenin and CDK4 | in vitro substrate ubiquitination with wt UB through wt Uba1-UbcH5b-CHIP, Western blot [6]: CHIP could poly-ubiquitinate MAPK3, β-catenin and CDK4 | in vitro substrate ubiquitination with wt UB through wt Uba1-UbcH5b-CHIP, Western blot [7]: CHIP ubiquitination of PRMT1 and PPP3CA generated mono-ubiquitinated species | p53 ubiquitination with wt UB, Western blot [3]: p53 modification by wt UB going through the wt Uba1-UbcH5b-CHIP cascade | in vitro substrate ubiquitination with wt UB through wt Uba1-UbcH5b-CHIP, Western blot [8]: CHIP could poly-ubiquitinate MAPK3, β-catenin and CDK4

B6: xCHIP (CHIP-KB2), C213K, G214D, K215P, S217M, F218H, E219T (protein)
chain: B5 chain with C213K, G214D, K215P, S217M, F218H, E219T
p53 ubiquitination with xUB, Western blot [3]: both CHIP mutants could transfer xUB to p53, a known CHIP substrate (26), at an efficiency comparable to wt UB transfer by wt CHIP

B7: xCHIP (CHIP-KB12), C213K, G214D, K215P, S217M, F218R, E219T (protein)
chain: B5 chain with C213K, G214D, K215P, S217M, F218R, E219T
p53 ubiquitination with xUB, Western blot [3]: both CHIP mutants could transfer xUB to p53, a known CHIP substrate (26), at an efficiency comparable to wt UB transfer by wt CHIP

B8: HECT domain of wt Nedd4 (protein)
chain: SRDYKRKYEFFRRKLKKQNDIPNKFEMKLRRATVLEDSYRRIMGVKRADFLKARLWIEFDGEKGLDYGGVAREWFFLISKEMFNPYYGLFEYSATDNYTLQINPNSGLCNEDHLSYFKFIGRVAGMAVYHGKLLDGFFIRPFYKMMLHKPITLHDMESVDSEYYNSLRWILENDPTELDLRFIIDEELFGQTHQHELKNGGSEIVVTNKNKKEYIYLVIQWRFVNRIQKQMAAFKEGFFELIPQDLIKIFDENELELLMCGLGDVDVNDWREHTKYKNGYSANHQVIQWFWKAVLMMDSEKRIRLLQFVTGTSRVPMNGFAELYGSNGPQSFTVEQWGTPEKLPRAHTCFNRLDLPPYESFEELWDKLQMAIENTQGFDGVD
HECT auto-ubiquitination with wt UB, reducing gel [1]: HECT domains of wt E6AP, Nedd4, Smurf1 and Smurf2 can be loaded with wt UB through the wt Uba1-UbcH7 pair | HECT auto-ubiquitination with xUB, reducing gel [2]: the R5E and K9E mutants in the N-terminal helix of xUbcH7 interfered with the transfer of xUB to wt HECT E3s such as E6AP, Nedd4, Smurf1, and Smurf2
